Ends that are not written are not given here.
Columns and labels:
Type in all cases: cell-based
[1] = tested on: csGRP78 interaction with α2M*; assay: HG-induced profibrotic signaling and matrix production in primary rat renal fibroblasts; conditions: FIG. 8F
Method: (§1) Cell Culture-Primary mesangial cells (MC) were obtained from male C57BL/6 mice by glomerular sieving and cultured in Dulbecco's modified Eagle's medium (Sigma) supplemented with 20% fetal bovine serum, streptomycin (100 μg/mL) and penicillin (100 μg/mL). 1LN prostate cancer cells, which express high levels of csGRP78 (as described in Hart et al., J Biol Chem. 2002; 277 (44): 42082-42087) were cultured in RPMI 1640 supplemented with 10% fetal bovine serum (ThermoFisher). Cells were grown at 37° C. in 95% 02 and 5% CO2. The immortalized human proximal tubular cell line HK2 (ATCC, Burlington, Canada) was cultured in 10% FBS in DMEM/F12 medium. Primary rat renal fibroblasts (Cell Biologics, Burlington, Canada) and cultured in 10% FBS in DMEM/F12 medium. MC were serum deprived in medium with 1% bovine serum albumin (BSA) and HK2 and RF cells were starved in 0.5% FBS 24 h before treatment with HG (30 mM), mannitol (24.4 mM) as osmotic control or methylamine-activated α2M (100 pM). The peptide sequence in GRP78 to which α2M* binds was used to block their interaction (CLIGRTWNDPSVQQDIKFL) (Leu^98-Leu^115 with an additional N-terminal cysteine) (Gopal et al., J Biol Chem. 2016; 291 (20): 10904-10915). The scrambled peptide, GTNKSQDLWIPQLRDVFI (SEQ ID NO: 4) was used as a control, with both peptides used at 100 nM (Cedarlane). […]

α2M*/csGRP78 interaction [2] = target: T1, α2M*/csGRP78 interaction (Homo sapiens, UniProt P01023); assay: Intracellular calcium assay (Fura-2AM) in 1LN cells treated with α2M*
T1 construct: host or cells: 1LN prostate cancer cells (endogenous csGRP78); α2M* added from outside
T1 sequence (P01023 24-1474): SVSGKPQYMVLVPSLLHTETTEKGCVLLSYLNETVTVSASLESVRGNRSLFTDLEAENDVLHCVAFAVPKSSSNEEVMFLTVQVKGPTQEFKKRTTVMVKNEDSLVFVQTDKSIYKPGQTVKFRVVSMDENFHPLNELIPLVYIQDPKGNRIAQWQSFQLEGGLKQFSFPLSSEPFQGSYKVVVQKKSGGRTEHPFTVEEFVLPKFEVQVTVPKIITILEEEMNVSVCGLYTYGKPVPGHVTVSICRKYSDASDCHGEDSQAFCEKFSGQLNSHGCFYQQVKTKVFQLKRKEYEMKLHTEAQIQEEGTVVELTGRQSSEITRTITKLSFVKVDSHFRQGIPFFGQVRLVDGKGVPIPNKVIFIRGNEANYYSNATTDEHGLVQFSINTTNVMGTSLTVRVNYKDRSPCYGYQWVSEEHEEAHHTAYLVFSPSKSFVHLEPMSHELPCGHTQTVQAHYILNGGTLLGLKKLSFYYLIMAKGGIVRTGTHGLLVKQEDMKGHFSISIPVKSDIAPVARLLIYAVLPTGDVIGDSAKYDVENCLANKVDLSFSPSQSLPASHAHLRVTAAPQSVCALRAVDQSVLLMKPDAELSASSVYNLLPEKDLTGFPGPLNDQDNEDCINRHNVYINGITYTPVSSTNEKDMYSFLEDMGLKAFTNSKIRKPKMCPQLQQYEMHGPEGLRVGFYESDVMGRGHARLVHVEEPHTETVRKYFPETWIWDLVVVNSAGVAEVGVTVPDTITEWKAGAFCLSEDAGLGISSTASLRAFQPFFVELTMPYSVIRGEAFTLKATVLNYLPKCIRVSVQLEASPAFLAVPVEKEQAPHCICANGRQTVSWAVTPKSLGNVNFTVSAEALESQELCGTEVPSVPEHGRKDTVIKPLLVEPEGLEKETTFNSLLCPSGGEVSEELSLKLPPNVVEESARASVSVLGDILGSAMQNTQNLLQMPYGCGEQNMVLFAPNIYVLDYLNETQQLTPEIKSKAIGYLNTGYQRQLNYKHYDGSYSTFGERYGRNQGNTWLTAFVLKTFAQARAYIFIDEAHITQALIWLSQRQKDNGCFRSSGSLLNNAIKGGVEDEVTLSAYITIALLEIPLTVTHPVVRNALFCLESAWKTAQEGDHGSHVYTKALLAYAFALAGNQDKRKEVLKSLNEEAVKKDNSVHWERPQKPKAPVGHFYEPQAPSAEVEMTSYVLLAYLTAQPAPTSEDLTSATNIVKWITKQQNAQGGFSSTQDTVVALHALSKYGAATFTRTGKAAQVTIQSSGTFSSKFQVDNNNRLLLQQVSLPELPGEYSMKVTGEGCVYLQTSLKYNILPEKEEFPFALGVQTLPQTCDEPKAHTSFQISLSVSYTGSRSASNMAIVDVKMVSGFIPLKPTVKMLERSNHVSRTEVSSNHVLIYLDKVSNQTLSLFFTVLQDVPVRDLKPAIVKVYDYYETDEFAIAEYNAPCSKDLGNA
Method: as §1, with “10904-10915).” for “10904-10915). The scrambled peptide, GTNKSQDLWIPQLRDVFI (SEQ ID NO: 4) was used as a control, with both peptides used at 100 nM (Cedarlane).”
Intracellular Calcium Assay—1LN cells were plated in a 96 black walled clear bottom plate and allowed to grow to confluence over 2 days. After loading with the calcium indicator Fura-2AM (5 μM, Abcam) in HBSS for 45 minutes at 37° C. in the dark, baseline fluorescence readings were taken every minute for 5 minutes using a temperature-controlled fluorescent microplate reader (Gemini EM Spectra Max, Molecular Devices) set to 340 and 380 nm excitation and 510 nm emission. After treatment with methylamine-activated α2M (100 pM) with or without antibody (Fα2M or control IgG, 2 μg) and with or without peptide or scrambled peptide (100 nM), readings were taken every minute for 15 minutes. Intracellular calcium concentrations were determined by calculating the ratio of fluorescence signal (340/380 nm).

[3] = tested on: csGRP78 interaction with α2M*; assay: HG-induced profibrotic signaling and matrix production in human proximal tubular cell line HK2; conditions: proximal tubular cells; FIG. 8E
Method: as §1

α2M*/csGRP78 interaction [4] = target: T2, α2M*/csGRP78 interaction (Mus musculus, UniProt Q6GQT1); assay: High glucose (HG)-induced profibrotic responses in primary mesangial cells (MC), immunoblotting; conditions: for HG-induced Akt activation (pAkt on S473) / HG-induced upregulation of fibronectin (FN), collagen (Col) IV and CTGF: MC, HG 48 h, peptides 100 nM; for HG-induced Akt activation (pAkt on S473): FIG. 4B; for HG-induced upregulation of fibronectin (FN), collagen (Col) IV and CTGF: FIG. 4C; for HG-induced profibrotic responses in MC: FIG. 11B, 11D
T2 construct: endogenous in cells; host or cells: primary mouse mesangial cells (C57BL/6)
T2 sequence (Q6GQT1 33-1474): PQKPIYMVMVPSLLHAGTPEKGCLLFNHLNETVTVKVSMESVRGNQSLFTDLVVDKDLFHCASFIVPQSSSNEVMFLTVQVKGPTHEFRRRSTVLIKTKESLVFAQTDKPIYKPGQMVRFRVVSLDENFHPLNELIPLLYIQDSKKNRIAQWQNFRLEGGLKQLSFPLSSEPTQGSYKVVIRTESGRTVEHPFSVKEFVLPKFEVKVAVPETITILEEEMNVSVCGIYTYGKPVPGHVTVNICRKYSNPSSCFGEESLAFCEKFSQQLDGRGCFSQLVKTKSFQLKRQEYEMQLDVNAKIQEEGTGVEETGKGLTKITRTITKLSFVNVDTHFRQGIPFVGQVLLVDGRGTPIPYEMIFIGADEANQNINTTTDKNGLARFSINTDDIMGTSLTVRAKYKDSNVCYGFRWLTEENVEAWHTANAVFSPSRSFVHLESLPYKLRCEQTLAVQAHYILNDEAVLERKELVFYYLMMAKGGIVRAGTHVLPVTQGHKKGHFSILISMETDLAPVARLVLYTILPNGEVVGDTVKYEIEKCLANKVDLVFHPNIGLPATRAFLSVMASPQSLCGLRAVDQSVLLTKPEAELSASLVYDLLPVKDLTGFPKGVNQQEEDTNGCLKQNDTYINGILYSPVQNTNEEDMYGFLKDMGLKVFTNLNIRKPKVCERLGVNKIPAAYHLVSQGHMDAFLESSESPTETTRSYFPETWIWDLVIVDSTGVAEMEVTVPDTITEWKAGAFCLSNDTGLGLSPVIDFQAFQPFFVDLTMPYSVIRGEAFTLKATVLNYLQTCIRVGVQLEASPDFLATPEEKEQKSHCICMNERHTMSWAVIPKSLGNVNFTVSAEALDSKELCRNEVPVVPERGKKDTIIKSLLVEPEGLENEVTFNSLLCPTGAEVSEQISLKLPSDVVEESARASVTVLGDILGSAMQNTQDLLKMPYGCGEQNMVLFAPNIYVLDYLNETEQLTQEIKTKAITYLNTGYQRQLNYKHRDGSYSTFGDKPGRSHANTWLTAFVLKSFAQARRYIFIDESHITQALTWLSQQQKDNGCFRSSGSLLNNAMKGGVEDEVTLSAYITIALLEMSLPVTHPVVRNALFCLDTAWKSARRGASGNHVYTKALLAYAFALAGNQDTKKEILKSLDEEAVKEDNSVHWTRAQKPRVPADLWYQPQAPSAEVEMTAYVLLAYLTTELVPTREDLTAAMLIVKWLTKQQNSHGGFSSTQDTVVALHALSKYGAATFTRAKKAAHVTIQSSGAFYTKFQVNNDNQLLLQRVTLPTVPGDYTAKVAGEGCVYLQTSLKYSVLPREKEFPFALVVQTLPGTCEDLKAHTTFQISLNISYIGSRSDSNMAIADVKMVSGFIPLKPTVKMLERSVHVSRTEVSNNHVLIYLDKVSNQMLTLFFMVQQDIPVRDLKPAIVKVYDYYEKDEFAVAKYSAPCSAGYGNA
Method: Cell Culture-Primary mesangial cells (MC) were obtained from male C57BL/6 mice by glomerular sieving and cultured in Dulbecco's modified Eagle's medium (Sigma) supplemented with 20% fetal bovine serum, streptomycin (100 μg/mL) and penicillin (100 μg/mL). 1LN prostate cancer cells, which express high levels of csGRP78 (as described in Hart et al., J Biol Chem. 2002; 277 (44): 42082-42087) were cultured in RPMI 1640 supplemented with 10% fetal bovine serum (ThermoFisher). Cells were grown at 37° C. in 95% 02 and 5% CO2. The immortalized human proximal tubular cell line HK2 (ATCC, Burlington, Canada) was cultured in 10% FBS in DMEM/F12 medium. Primary rat renal fibroblasts (Cell Biologics, Burlington, Canada) and cultured in 10% FBS in DMEM/F12 medium. MC were serum deprived in medium with 1% bovine serum albumin (BSA) and HK2 and RF cells were starved in 0.5% FBS 24 h before treatment with HG (30 mM), mannitol (24.4 mM) as osmotic control or methylamine-activated α2M (100 pM). The peptide sequence in GRP78 to which α2M* binds was used to block their interaction (CLIGRTWNDPSVQQDIKFL) (Leu^98-Leu^115 with an additional N-terminal cysteine) (Gopal et al., J Biol Chem. 2016; 291 (20): 10904-10915). The scrambled peptide, GTNKSQDLWIPQLRDVFI (SEQ ID NO: 4) was used as a control, with both peptides used at 100 nM (Cedarlane). Additional peptides were synthesized by Biomatik as follows: 1) peptide lacking the N-terminal cysteine, 2) peptide in which the cysteine was replaced by a methionine, 3) dimerized peptide via the cysteine (LFKIDQQVSPDNWTRGILC—S—S— CLIGRTWNDPSVQQDIKFL) (SEQ ID NO: 5) head to tail cyclization via an amide which leaves the cysteine intact.
Protein Extraction and Immunoblotting-Cells were lysed as described previously (Krepinsky et al. Nitric Oxide Inhibits Stretch-Induced MAPK Activation in Mesangial Cells Through RhoA Inactivation. Published online 2003. doi: 10.1097/01.ASN.00000940.85.04161.A7). Proteins were separated using SDS-PAGE followed by immunoblotting. Antibodies used were: α2M (1:1000, Bioss), mouse monoclonal F-α2M, which detects only conformationally changed α2M* as previously described (1:1000), pAkt S473 (1:1000, Cell Signaling), total Akt (1:1000, Cell Signaling),), pSmad3 Ser423/425 (1:4000, Novus), total Smad3 (1:1000, Abcam), phosphorylated focal adhesion kinase (pFAK) Tyr-397 (1:1000, Millipore, 07-012), FAK (1:1000, Santa Cruz Biotechnology, SC558), LRP1 (1:1000, Abcam), GRP78 (C20) (1:1000, Santa Cruz), platelet derived growth factor-β (PDGFR-β) (1:1000, Cedarlane), collagen IV (Col IV) (1:1000, Cell Signaling), fibronectin (FN) (1:1000, Abcam), connective tissue growth factor (CTGF) (1:1000, Santa Cruz), and tubulin (1:2000, Santa Cruz).

Row | HG-induced Akt activation (pAkt on S473) (α2M*/csGRP78 interaction [4]) | HG-induced upregulation of fibronectin (FN), collagen (Col) IV and CTGF (α2M*/csGRP78 interaction [4]) | Substance | HG-induced profibrotic responses in MC (α2M*/csGRP78 interaction [4]) | further results
1 | prevented HG-induced Akt activation | prevented | CLIGRTWNDPSVQQDIKFL [Pep] | – | HG-induced Akt activation (Ser473) and ECM production [1]: attenuated; release of intracellular calcium stores in response to α2M* (α2M*/csGRP78 interaction [2]; 1-LN cells, α2M* 100 pM, 15 min, peptides 100 nM, FIG. 4A): inhibited release of intracellular calcium stores; HG-induced Akt activation (Ser473) and ECM production [3]: attenuated
2 | had no effect | had no effect | GTNKSQDLWIPQLRDVFI [Scr, scrambled control peptide, reference compound] | – | –
3 | – | – | LFKIDQQVSPDNWTRGILC—S—S— CLIGRTWNDPSVQQDIKFL (also: homodimer via disulfide between the N-terminal cysteines of two copies) [Dimer Pep, dimerized peptide via the cysteine] | do not prevent HG-induced profibrotic responses | calcium signaling in 1LN cells induced by α2M* (α2M*/csGRP78 interaction [2]; FIG. 11C): do not inhibit calcium signaling
4 | – | – | LIGRTWNDPSVQQDIKFL [Pep woC, peptide without an N-terminal cysteine residue in Leu98-Leu115] | does not prevent HG-induced profibrotic responses | calcium signaling in 1LN cells induced by α2M* (α2M*/csGRP78 interaction [2]; peptide tested at 100 pM and 100 nM, FIG. 11A): did not inhibit calcium signaling
